# B1: MATN2 (parent)
# chain: FIVDILQFLDIGPDVTRVGLLQYG
# B2: CROP (parent)
# chain: VFGRGDNISDVSKFLEDDKWMEE
# B3: SNURF (parent)
# chain: QVPVVDFQAELRQAFLAETPRGG
# Variants of: B1
# Assay: protein stability index of a GFP-peptide fusion (GPS, HEK-293T) (PSI 1-6); higher = more stable
# Conditions: c terminus: a fixed tail appended
# 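Further: lentivirally expressed fusions sorted by FACS into six bins by GFP to DsRed ratio, PSI derived from sequencing read proportions per bin multiplied by bin number.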
row,Variant,protein stability index
1,G24E,1.99
2,G24A,2.27
3,G24R,2.18
4,G24I,3.62
5,G24L,4.05
6,G24F,3.31
7,G24H,3.37
8,G24W,3.04
9,G24K,1.81
10,Y23R,3.61
11,Y23T,3.99

# Variants of: B2
# Assay: as above
# Conditions: c terminus: native
row,Variant,protein stability index
1,V1H,2.59
2,V1G,3.63
3,V1L,2.48
4,V1P,2.76
5,V1Q,3
6,V1E,2.97
7,V1D,3.13
8,V1W,3.69
9,V1I,1.43
10,V1M,1.84
11,V1A,2.11
12,V1N,2.25
13,V1K,2.73
14,V1C,1.97
15,V1S,2.11
16,V1R,2.37
17,S9Q,2.41
18,S9I,1.97
19,S9E,2.44
20,S9G,2.06
21,S9T,2.43
22,S9P,3.03
23,S9V,2.11

row,Variant,protein stability index
1,S9A,2.31
2,S9D,2.12
3,S9F,1.63
4,S9K,1.62
5,S9N,1.78
6,S9M,2.47
7,S9Y,2.3
8,S9L,3.1
9,S9H,2.25
10,N7I,2.21
11,N7D,2.89
12,N7E,1.4
13,N7Q,1.79
14,N7G,1.77
15,N7S,1.41
16,N7T,1.89
17,N7H,2.12
18,N7P,1.35
19,N7Y,1.97
20,N7C,2.37
21,N7L,1.42
22,N7M,1.64
23,N7A,1.68

row,Variant,protein stability index
1,N7R,2.61
2,N7V,1.53
3,S12E,2.56
4,S12D,2
5,S12F,2.33
6,S12C,1.73
7,S12A,1.4
8,S12G,1.41
9,I8Y,1.74
10,I8F,2
11,I8A,2.35
12,I8K,2.23
13,I8P,2.03
14,I8Q,2.07
15,I8M,2.05
16,I8N,1.44
17,I8H,1.93
18,I8L,2.11
19,I8R,2.92
20,I8E,2.9
21,I8D,1.89
22,I8S,2.48
23,I8C,2.81

row,Variant,protein stability index
1,I8T,2.62
2,I8G,3.51
3,D6L,2.91
4,D6V,2.96
5,D6P,2.32
6,D6I,2.48
7,D6R,2.16
8,D6H,1.85
9,D6S,2.15
10,D6Q,2.4
11,D6W,4.02
12,D6E,2.42
13,D6K,2.01
14,D6G,2.08
15,D10V,2.63
16,D10N,2.04
17,D10P,1.69
18,D10G,2.11
19,D10E,2.1
20,D10K,1.99
21,D10H,3.06
22,D10S,2.09
23,D10I,1.99

row,Variant,protein stability index
1,D10T,2.74
2,D10M,2.75
3,D10A,1.99
4,D10R,1.55
5,G3Q,2.11
6,G3D,2.21
7,G3R,2.1
8,G3A,2.83
9,G3W,2.36
10,G3P,2.84
11,G3V,1.51
12,G3T,2.07
13,G3M,1.51
14,G3K,1.44
15,G3C,2.48
16,G3F,1.44
17,G3H,1.88
18,G3S,1.82
19,R4E,2.42
20,R4P,1.51
21,R4G,2.16
22,R4S,2.33
23,R4L,1.98

row,Variant,protein stability index
1,R4I,1.95
2,R4N,2.1
3,R4T,2.3
4,R4Q,1.99
5,R4W,1.39
6,R4A,2.43
7,R4V,1.9
8,R4D,2.4
9,R4C,2.66
10,R4F,2.19
11,R4K,2.41
12,R4M,2.77
13,R4Y,2.31
14,R4H,2.19
15,G5M,1.14
16,G5S,3.13
17,G5F,1.88
18,G5C,2.27
19,G5N,3.26
20,G5P,2.54
21,G5L,2.16
22,G5T,2.63
23,G5W,2.02

row,Variant,protein stability index
1,G5R,1.74
2,G5D,2.29
3,G5K,3.07
4,G5Y,1.32
5,G5I,2.77
6,G5V,1.61
7,G5A,2.03
8,G5Q,2.3
9,F2K,2.16
10,F2D,3.87
11,F2P,2.66
12,F2W,2.85
13,F2I,1.8
14,F2A,2.88
15,F2H,3.4
16,F2N,2.87
17,F2C,3.7
18,F2E,4.33
19,F2T,3.29
20,F2Q,2.99
21,F2L,1.97
22,F2Y,1.66
23,F2G,2.79

row,Variant,protein stability index
1,F2S,2.83
2,F2V,2.64
3,V11A,2.4
4,V11H,2.43
5,V11F,2.15
6,V11P,3.27
7,V11S,2.71
8,V11E,2.39
9,V11I,2.39
10,V11N,2.33
11,V11L,1.61
12,V11G,2.11
13,V11K,2.6
14,V11Y,1.38
15,V11R,2.12
16,V11W,2.43
17,V11C,2.35
18,V11M,2.95
19,V11T,1.49
20,V11Q,2.87

# Variants of: B3
# Assay: as above
# Conditions: c terminus: native
row,Variant,protein stability index
1,V4T,2.69
2,V4A,3.33
3,V4W,2.09
4,V4M,3.48
5,V4F,3.43
6,V4L,2.5
7,A17S,2
8,A17I,3.76
9,A17K,3.45
10,F15R,1.95
11,F15G,3.47
12,F15K,2.48
13,F15T,3.19
14,F15Y,1.94
15,F15W,2.83
16,F15E,2.82
17,E10K,2.48
18,E10D,2.15
19,E10P,2.93
20,E10Q,2.59
21,E10A,1.34
22,E10F,4
23,E10M,3.19
24,P20C,1.59

row,Variant,protein stability index
1,P20F,2.27
2,P20A,3
3,P20K,2.19
4,P20I,3.38
5,P20W,3.74
6,P20Y,3.23
7,Q1N,2.49
8,Q1T,3.88
9,Q1S,2.31
10,T19C,3.31
11,T19K,3.17
12,T19A,3.59
13,T19R,1.63
14,T19F,2.29
15,L16W,1.96
16,L16A,2.42
17,L16Y,3.57
18,L16P,3.02
19,L16H,2.13
20,L16F,2.03
21,Q13C,1.71
22,Q13S,3.53
23,Q13G,4.32
24,Q13D,2.15

row,Variant,protein stability index
1,Q13M,2.42
2,Q13A,2.68
3,Q13Y,2.73
4,F7T,4.49
5,F7S,3.5
6,F7W,2.9
7,A14L,3.5
8,A14P,2.12
9,A14F,2.58
10,A14D,2.99
11,A14E,3.09
12,A14H,2.3
13,A14K,3.05
14,R21A,4.22
15,R21K,1.78
16,R21N,2.15
17,R21P,3.47
18,R21L,2.66
19,L11I,2.03
20,L11R,3.83
21,L11P,3.34
22,L11K,4.47
23,L11D,2.77
24,L11A,3.6

row,Variant,protein stability index
1,L11F,3.51
2,L11S,2.27
3,V5D,1.7
4,V5F,2.39
5,V5H,3.52
6,V5T,2.34
7,V5S,4.05
8,V5W,3.5
9,V5A,2.08
10,V5L,3.11
11,V5I,4.13
12,E18C,3.41
13,E18S,2.02
14,E18F,1.67
15,E18P,3.59
16,G22D,4.09
17,G22T,2.57
18,G22R,2.73
19,G22E,3.26
20,G22K,2.04
21,G22L,2.66
22,G22M,1.95
23,G22F,2.29
24,G22V,3.34

row,Variant,protein stability index
1,G22I,2.95
2,G22H,2.79
3,G22C,1.99
4,G22Y,2.51
5,G22S,1.94
6,G22N,2.5
7,V2Q,1.5
8,V2G,2.61
9,V2K,3.98
10,R12P,2.89
11,R12Y,3.86
12,R12E,2.54
13,R12N,2.92
14,R12Q,3.27
15,R12M,3.51
16,D6N,3.2
17,D6E,4.69
18,D6R,2.21
19,D6C,4.03
20,A9D,2.47
21,P3Q,4.82
22,P3D,3.02
23,P3V,3.01
24,G23W,1.5

row,Variant,protein stability index
1,G23S,3.16
2,G23T,3.93
3,G23V,2.52
4,G23A,2.38
5,G23H,1.77
6,G23I,2.06
7,G23L,3.09
8,G23N,1.92
9,G23C,1.66
10,G23D,3.97
11,G23Y,3.06
12,G23E,1.85
13,G23Q,2.42
14,G23M,1.71
15,G23K,4.37
16,G23F,2.27
17,Q8K,5.19
18,Q8C,3.49
19,Q8Y,2.98
20,Q8V,1.43
21,Q8T,3.31
22,Q8L,3.47

# From the supplement of paper PMC10567573
